Experiments:
HLA-A*03:01 = assay: IEDB peptide-MHC binding, purified MHC/competitive/radioactivity; ≥ and ≤ were set here for values at or beyond the usual limits of such assays; settings: source organism: Homo sapiens
HLA-A*11:01 = assay: as above; settings: source organism: Homo sapiens
HLA-A*01:01 [1] = assay: as above; settings: source organism: Homo sapiens
HLA-A*24:02 = assay: as above; settings: source organism: Homo sapiens
HLA-A*01:01 [2] = assay: IEDB peptide-MHC binding, purified MHC/competitive/radioactivity; filed as Kd, often an IC50 or EC50 that approximates it; ≥ and ≤ were set here for values at or beyond the usual limits of such assays

Sequence | IC50 (HLA-A*03:01) | IC50 (HLA-A*11:01) | IC50 (HLA-A*01:01 [1]) | other results
ASFDKAKLK | 42 nM | 15.1 nM | – | –
KYPENFFLL | – | – | – | IC50 (HLA-A*24:02): 4.8 nM
RTQNVLGEK | 155 nM | 31 nM | – | –
YYEEQHPEL | – | – | – | IC50 (HLA-A*24:02): 100 nM
STDHIPILY | – | – | 1.7 nM | –
NRKLLDIA | – | – | – | Kd (HLA-A*01:01 [2]; source organism: Bos taurus): ≥ 50000 nM
AYVHMVTHF | – | – | – | IC50 (HLA-A*24:02): 23 nM
DAKIRIFDL | – | – | – | Kd (HLA-A*01:01 [2]; source organism: Homo sapiens): ≥ 50000 nM

More lines, main results first:

IC50 (HLA-A*03:01) | IC50 (HLA-A*11:01) | IC50 (HLA-A*01:01 [1]) | Sequence | other results
– | – | 0.6 nM | DSDGSFFLY | –
– | – | 2.8 nM | YLDDPDLKY | –
128 nM | 6.94 nM | – | SVLNLVIVK | –
– | – | 0.74 nM | ATDFKFAMY | –
85 nM | 8.1 nM | – | KVVNPLFEK | –

From the Immune Epitope Database (IEDB)
